From paper PMC3409459, “Absorption, distribution, metabolism and excretion of peginesatide, a novel erythropoiesis-stimulating agent, in rats” (Xenobiotica; the Fate of Foreign Compounds in Biological …, 2011)

Key:
[1] = Quantitative whole body autoradiography (QWBA) tissue distribution; type: in vivo, male Sprague-Dawley rats; details: for the radiolabel distribution and QWBA studies
Procedure: Tissue distribution of radioactivity was assessed by quantitative whole-body autoradiography (QWBA) in addition to determination of radioactivity tissue levels by LSC. At various time points following the administration of the desired QWBA target dose of 100 uCi/kg [^14C]-peginesatide, equating to a 17mg/kg dose of peginesatide, the rats were anesthetized with isoflurane and blood (−3-4 mL) was collected via cardiac puncture. Anesthetized rats were sacrificed by immersion in a hexane dryicebath. Carcasseswere embedded in 2% carboxymethylceilulose over solid CO2 to ensure the block was retained frozen, and then stored at −20°C until sectioning. In addition, ^14C radioactivity standards were embedded with each carcass to provide a context for quantification and for quality control purposes.
Samples were sectioned onto adhesive tape (Nakagawa NA-70 MAG, Japan) at five levels of interest in the sagittal plane, with all major tissues, organs, and biological fluids represented. […] To quantitate radioactivity in tissues, a calibration standard curve was constructed using American Radiolabeled Chemicals, Inc ARC 146 standards. The autoradiographic image data for the calibration standards and specified tissues, organs, and fluids were quantified using Imaging Research Inc. AIS software. […]

[2] = set-up: species or system male Sprague-Dawley rats; details: rat, in vivo, iv
Procedure: The metabolite profiling in the biological samples from rats dosed with [^14C]-peginesatide was performed by high-performance liquid chromatography (HPLC). The radiolabeled materials in the samples of plasma and aqueous homoge-nates of tissues and feces were extracted with five volumes of methanol containing 0.1% of trifluoroacetic acid (TFA), mixed and centrifuged at 1500g at 4°C for l0 min to obtain supernatant. A portion of the supernatant was counted to estimate the extraction recovery of [^14C]-peginesatide and its related compounds in the biological samples. The rest of the supernatant was evaporated to dryness under a nitrogen gas stream. The residue was re-dissolved in a small volume of equal parts mobile phase [MP(A)] and B [MP(B)] for chromatographic analysis. The HPLC system (Simadzu, Kyoto, Japan) consisted of a LC-lOADvp pump, a CTO-lOACvp column oven, an SPD-lOAvp UV detector, and an SCL-lOAvp system controller. […] The flow rate was 0.5mL/min, and the peaks were monitored by a UV absorption detector at 215 run. […] The effluentwas collected into 0.5mL size fractions, followed by counting of the radioactivity (LSC). […]
Noncompartmental PK parameters for peginesatide and metabolites were generated using WinNonlin ver. […] Apparent terminal half-life (t1/2) was calculated as In2/λz. The AUC0-inf was calculated as the sum of AUC0-t and Cobs/λz, where Cobs, was the actual concentration at the time of the last quantifiable concentration. […] The mean residence time (MRT) was calculated as the ratio of AUMC0-inf/AUC0-inf, where AUMC0-inf was the area under the first moment curve from the time zero to infinity. […]
The plasma metabolic profile of [^14C]-peginesatide was determined by the HPLC analysis described above and measurement of radioactivity using LSC. […] The moieties detected were designated as peginesatide or mono-PEG (peginesatide with one PEG chain), with the remaining radioactivity designated as “Other” The classification of Other is anticipated to encompass smaller PEGylated-peptide and peptide/ amino acid components. […]

Peginesatide
bone marrow to bone ratios [1]: 11-25
Tmax [2]: 0.25 h
t½α [2]: 29.1 h
t½β [2]: 110 h
